Reference: patent US20090158448A1 (NATIONAL UNIVERSITY CORPORATION TOKYO MEDICAL AND DENTAL …, published 2009)

Tests used:
Assay in all cases: co-immunoprecipitation (anti-myc) and western, 293T cells
[1] = biological target: T1, mutant MuSK (YF), myc tag (mouse, UniProt Q61006 22-868, limits assumed)
T1 construct: Mutation in the NPXY PTB domain target motif; also called YF mutant; not shown: myc tag
T1 sequence: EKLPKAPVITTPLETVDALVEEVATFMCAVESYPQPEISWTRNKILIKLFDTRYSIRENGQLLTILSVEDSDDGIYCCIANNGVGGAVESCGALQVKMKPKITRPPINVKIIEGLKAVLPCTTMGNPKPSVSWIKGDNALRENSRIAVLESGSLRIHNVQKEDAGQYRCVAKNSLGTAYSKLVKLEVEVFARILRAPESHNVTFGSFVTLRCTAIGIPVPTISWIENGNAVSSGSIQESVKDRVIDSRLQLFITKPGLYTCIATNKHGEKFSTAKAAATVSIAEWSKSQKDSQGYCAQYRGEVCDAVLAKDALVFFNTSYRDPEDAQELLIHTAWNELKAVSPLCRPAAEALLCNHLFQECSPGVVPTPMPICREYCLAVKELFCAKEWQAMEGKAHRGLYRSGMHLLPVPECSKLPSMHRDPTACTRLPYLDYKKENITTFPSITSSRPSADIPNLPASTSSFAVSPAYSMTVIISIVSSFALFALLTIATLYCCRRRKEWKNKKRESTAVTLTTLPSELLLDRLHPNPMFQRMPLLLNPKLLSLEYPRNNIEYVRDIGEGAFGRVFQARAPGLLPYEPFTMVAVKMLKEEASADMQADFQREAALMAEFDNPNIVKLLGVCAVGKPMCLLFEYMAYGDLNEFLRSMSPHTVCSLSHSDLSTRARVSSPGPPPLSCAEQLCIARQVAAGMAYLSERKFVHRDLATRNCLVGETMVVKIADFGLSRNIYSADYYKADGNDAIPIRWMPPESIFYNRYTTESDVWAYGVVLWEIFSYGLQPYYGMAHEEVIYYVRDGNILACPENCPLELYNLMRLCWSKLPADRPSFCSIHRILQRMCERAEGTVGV
Description: (§1) Immunoprecipitation of whole cell lysate (WCL) obtained from each transformed cell strain was carried out using an anti-myc tag antibody, and thus an immunoprecipitate (IP: αmyc) was obtained. Then, a western blot analysis was performed for the whole cell lysate and immunoprecipitate. The antibodies used were the same as the antibodies described above.
(§2) Then, immunoprecipitation of whole cell lysate (WCL) obtained from each transformed cell strain was carried out, and a western analysis was performed on the resulting immunoprecipitate (IP: αmyc). The antibodies used were the same as the antibodies described above.

[2] = biological target: T2, mutant MuSK (NA), myc tag (mouse, UniProt Q61006 22-868, limits assumed)
T2 construct: Mutation in the NPXY PTB domain target motif; also called NA mutant; not shown: myc tag
T2 sequence: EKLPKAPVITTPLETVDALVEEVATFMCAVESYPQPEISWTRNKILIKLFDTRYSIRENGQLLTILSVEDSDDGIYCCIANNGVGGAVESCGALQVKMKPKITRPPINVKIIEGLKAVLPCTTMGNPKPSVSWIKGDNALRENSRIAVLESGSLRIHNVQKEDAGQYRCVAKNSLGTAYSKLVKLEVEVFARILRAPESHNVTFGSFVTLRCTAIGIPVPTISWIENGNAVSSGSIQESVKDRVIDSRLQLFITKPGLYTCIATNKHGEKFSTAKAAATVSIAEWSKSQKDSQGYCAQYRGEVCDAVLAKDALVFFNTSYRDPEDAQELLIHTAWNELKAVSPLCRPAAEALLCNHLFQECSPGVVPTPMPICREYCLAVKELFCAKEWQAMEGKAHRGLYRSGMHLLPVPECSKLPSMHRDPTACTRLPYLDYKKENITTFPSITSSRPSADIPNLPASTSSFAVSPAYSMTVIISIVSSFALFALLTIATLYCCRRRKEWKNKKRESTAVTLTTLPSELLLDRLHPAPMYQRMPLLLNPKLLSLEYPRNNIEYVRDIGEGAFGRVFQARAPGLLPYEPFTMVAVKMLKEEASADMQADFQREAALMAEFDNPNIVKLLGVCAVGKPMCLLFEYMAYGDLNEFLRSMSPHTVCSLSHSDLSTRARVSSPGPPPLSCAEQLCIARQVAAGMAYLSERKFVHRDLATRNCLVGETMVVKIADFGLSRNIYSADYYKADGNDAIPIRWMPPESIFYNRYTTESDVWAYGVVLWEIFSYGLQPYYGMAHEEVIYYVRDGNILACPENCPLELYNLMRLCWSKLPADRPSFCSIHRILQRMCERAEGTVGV
Description: as §1, §2

[3] = biological target: T3, wild type (WT) mouse MuSK fused to myc tag (mouse, UniProt Q61006 22-868, limits assumed)
T3 construct: also called wild type MuSK (WT); muscle-specific tyrosine kinase; not shown: myc tag
T3 sequence: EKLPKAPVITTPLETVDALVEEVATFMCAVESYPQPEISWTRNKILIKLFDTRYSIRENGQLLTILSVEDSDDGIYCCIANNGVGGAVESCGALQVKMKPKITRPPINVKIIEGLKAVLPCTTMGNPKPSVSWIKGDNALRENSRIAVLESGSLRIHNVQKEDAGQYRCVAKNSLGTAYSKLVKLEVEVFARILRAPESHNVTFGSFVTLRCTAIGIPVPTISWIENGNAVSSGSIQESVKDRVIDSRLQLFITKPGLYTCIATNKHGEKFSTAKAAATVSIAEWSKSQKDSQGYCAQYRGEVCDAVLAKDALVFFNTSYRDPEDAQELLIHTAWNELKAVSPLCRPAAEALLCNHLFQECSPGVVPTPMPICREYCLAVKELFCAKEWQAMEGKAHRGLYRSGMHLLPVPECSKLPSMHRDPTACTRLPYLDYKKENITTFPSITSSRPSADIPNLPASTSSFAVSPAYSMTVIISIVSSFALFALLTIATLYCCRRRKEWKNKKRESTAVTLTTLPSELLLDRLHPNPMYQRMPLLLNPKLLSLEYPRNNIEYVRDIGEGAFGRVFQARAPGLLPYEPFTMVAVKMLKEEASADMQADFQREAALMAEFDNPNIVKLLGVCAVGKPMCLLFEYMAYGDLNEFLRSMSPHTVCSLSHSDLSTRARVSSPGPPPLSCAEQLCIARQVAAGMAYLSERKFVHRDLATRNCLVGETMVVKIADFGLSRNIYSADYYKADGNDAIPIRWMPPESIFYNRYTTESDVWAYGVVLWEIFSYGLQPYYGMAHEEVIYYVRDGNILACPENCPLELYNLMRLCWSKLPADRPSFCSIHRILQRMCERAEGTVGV
Description: as §1, §2

B1: wild type human Dok-7 protein (other)
chain: MTEAALVEGQVKLRDGKKWKSRWLVLRKPSPVADCLLMLVYKDKSERIKGLRERSSLTLEDICGLEPGLPYEGLVHTLAIVCLSQAIMLGFDSHEAMCAWDARIRYALGEVHRFHVTVAPGTKLESGPATLHLCNDVLVLARDIPPAVTGQWKLSDLRRYGAVPSGFIFEGGTRCGYWAGVFFLSSAEGEQISFLFDCIVRGISPTKGPFGLRPVLPDPSPPGPSTVEERVAQEALETLQLEKRLSLLSHAGRPGSGGDDRSLSSSSSEASHLDVSASSRLTAWPEQSSSSASTSQEGPRPAAAQAAGEAMVGASRPPPKPLRPRQLQEVGRQSSSDSGIATGSHSSYSSSLSSYAGSSLDVWRATDELGSLLSLPAAGAPEPSLCTCLPGTVEYQVPTSLRAHYDTPRSLCLAPRDHSPPSQGSPGNSAARDSGGQTSAGCPSGWLGTRRRGLVMEAPQGSEATLPGPAPGEPWEAGGPHAGPPPAFFSACPVCGGLKVNPPP
notes: also called WT; polypeptide of the present invention
[1]
  binding result: no binding
[2]
  binding result: no binding

B2: mutant Dok-7 (RA) (other)
chain: MTEAALVEGQVKLRDGKKWKSRWLVLRKPSPVADCLLMLVYKDKSERIKGLRERSSLTLEDICGLEPGLPYEGLVHTLAIVCLSQAIMLGFDSHEAMCAWDARIRYALGEVHRFHVTVAPGTKLESGPATLHLCNDVLVLARDIPPAVTGQWKLSDLAAYGAVPSGFIFEGGTACGYWAGVFFLSSAEGEQISFLFDCIVRGISPTKGPFGLRPVLPDPSPPGPSTVEERVAQEALETLQLEKRLSLLSHAGRPGSGGDDRSLSSSSSEASHLDVSASSRLTAWPEQSSSSASTSQEGPRPAAAQAAGEAMVGASRPPPKPLRPRQLQEVGRQSSSDSGIATGSHSSYSSSLSSYAGSSLDVWRATDELGSLLSLPAAGAPEPSLCTCLPGTVEYQVPTSLRAHYDTPRSLCLAPRDHSPPSQGSPGNSAARDSGGQTSAGCPSGWLGTRRRGLVMEAPQGSEATLPGPAPGEPWEAGGPHAGPPPAFFSACPVCGGLKVNPPP
notes: also called RA of Dok-7
[3]
  binding result: no binding
